Measurements from the supplement of paper PMC7125110.
± gives the standard error. For some of these results: This sample holds only a part of the variants without activity.

B1: glmS ribozyme (parent)
chain: AUAAAAGCGCCAGAACUACAGAAAUGUAGUUGACGAGGAGGAGGUUUAUCGAAUUUUCGGCGGAUGCCUCCAAA

Experiments:
Settings in all cases: with glucosamine-6-phosphate
glucosamine-6-phosphate [1] = variants of: B1; assay: kcat; higher = faster cleavage; RNA array
Outline: (§1)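 kobs was derived by fitting per-tile medians to one- or two-exponential decays after normalising signals to baseline and to non-cleaving reference variants. Those signals came from barcoded ribozyme variants transcribed in situ by E. coli RNA polymerase on sequenced MiSeq chips, followed through a hybridised Cy3 probe at 37 °C and imaged over ~14 h. Glucosamine-6-phosphate (40 μM to 10 mM) in HEPES/KCl/Mg(OAc)2 buffer was flowed in. Weighted Michaelis–Menten fits across concentrations then gave kcat and KM.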

glucosamine-6-phosphate [2] = variants of: B1; assay: self-cleavage kobs at 40 uM GlcN6P; higher = faster cleavage; RNA array
Outline: as §1

glucosamine-6-phosphate [3] = variants of: B1; assay: self-cleavage kobs at 2500 uM GlcN6P; higher = faster cleavage; RNA array
Outline: as §1

glucosamine-6-phosphate [4] = variants of: B1; assay: self-cleavage kobs at 10000 uM GlcN6P; higher = faster cleavage; RNA array
Outline: as §1

glucosamine-6-phosphate [5] = variants of: B1; assay: self-cleavage kobs at 160 uM GlcN6P; higher = faster cleavage; RNA array
Outline: as §1

glucosamine-6-phosphate [6] = variants of: B1; assay: self-cleavage kobs at 640 uM GlcN6P; higher = faster cleavage; RNA array
Outline: as §1

glucosamine-6-phosphate [7] = variants of: B1; assay: KM; higher = weaker cofactor use; RNA array
Outline: as §1

Variant	kcat (glucosamine-6-phosphate [1])	self-cleavage kobs at 40 uM GlcN6P (glucosamine-6-phosphate [2])	self-cleavage kobs at 2500 uM GlcN6P (glucosamine-6-phosphate [3])	self-cleavage kobs at 10000 uM GlcN6P (glucosamine-6-phosphate [4])	self-cleavage kobs at 160 uM GlcN6P (glucosamine-6-phosphate [5])	self-cleavage kobs at 640 uM GlcN6P (glucosamine-6-phosphate [6])	KM (glucosamine-6-phosphate [7])
A12U A42C	2.16e-05 ± 2.9e-06 s⁻¹	< 1e-05 s⁻¹	1.75e-05 ± 7.1e-06 s⁻¹	1.89e-05 ± 8.5e-06 s⁻¹			
U55G U69G	7.83e-05 ± 1.5e-05 s⁻¹			6.23e-05 ± 1.7e-05 s⁻¹	8.02e-05 ± 1.9e-05 s⁻¹	8.9e-05 ± 1.9e-05 s⁻¹	
U30G U56A	0.00811 ± 0.0019 s⁻¹	0.000125 ± 1.6e-05 s⁻¹	0.003 ± 0.00057 s⁻¹	0.00771 ± 0.0011 s⁻¹	0.000498 ± 0.0001 s⁻¹	0.00146 ± 0.00024 s⁻¹	2730 ± 850 µM
G9A G37C	< 1e-05 s⁻¹	< 1e-05 s⁻¹					
A52G U69G	5.99e-05 ± 2e-05 s⁻¹		7.25e-05 ± 1.2e-05 s⁻¹		7.33e-05 ± 1.4e-05 s⁻¹	0.000113 ± 2.5e-05 s⁻¹	
U47G C67G	0.000689 ± 0.00022 s⁻¹	7.66e-05 ± 1.4e-05 s⁻¹	0.000429 ± 5.2e-05 s⁻¹	0.000816 ± 9.6e-05 s⁻¹	0.000105 ± 1.9e-05 s⁻¹	0.000248 ± 2.3e-05 s⁻¹	
G32U C70G	7.04e-05 ± 1e-05 s⁻¹		5.3e-05 ± 5.7e-06 s⁻¹	7.56e-05 ± 4.5e-06 s⁻¹		8.68e-05 ± 1.2e-05 s⁻¹	
A12U G13U	0.000141 ± 9.1e-06 s⁻¹		9.95e-05 ± 1.1e-05 s⁻¹	0.000123 ± 1.8e-05 s⁻¹		5.07e-05 ± 9.6e-06 s⁻¹	1130 ± 200 µM
G37A A53C	0.000609 ± 7.9e-05 s⁻¹		0.00027 ± 3.6e-05 s⁻¹	0.000468 ± 5.8e-05 s⁻¹		0.00012 ± 2.1e-05 s⁻¹	3030 ± 740 µM
C16A U31G	0.000292 ± 2.2e-05 s⁻¹		0.000177 ± 5e-05 s⁻¹	0.000267 ± 4.3e-05 s⁻¹	4.15e-05 ± 1.7e-05 s⁻¹	9.42e-05 ± 1.8e-05 s⁻¹	1280 ± 200 µM
G63A C70A	1.85e-05 ± 4.5e-06 s⁻¹						
C34U C68A	1.2e-05 ± 1.8e-06 s⁻¹						
A12U C16A U56A	0.00194 ± 0.00074 s⁻¹	0.000111 ± 2e-05 s⁻¹	0.00102 ± 0.00035 s⁻¹	0.00247 ± 0.00041 s⁻¹		0.000636 ± 0.00015 s⁻¹	
C50A U54G	2.18e-05 ± 1.9e-06 s⁻¹						
C68U U69G	2.33e-05 ± 5.5e-06 s⁻¹		3.45e-05 ± 1.6e-05 s⁻¹				
A36U G66C	< 1e-05 s⁻¹	< 1e-05 s⁻¹			< 1e-05 s⁻¹		

Variant	kcat (glucosamine-6-phosphate [1])	self-cleavage kobs at 40 uM GlcN6P (glucosamine-6-phosphate [2])	self-cleavage kobs at 2500 uM GlcN6P (glucosamine-6-phosphate [3])	self-cleavage kobs at 10000 uM GlcN6P (glucosamine-6-phosphate [4])	self-cleavage kobs at 160 uM GlcN6P (glucosamine-6-phosphate [5])	self-cleavage kobs at 640 uM GlcN6P (glucosamine-6-phosphate [6])	KM (glucosamine-6-phosphate [7])
A52C U54G G63A	1.25e-05 ± 2.6e-06 s⁻¹		< 1e-05 s⁻¹	< 1e-05 s⁻¹			
G66A C68G	6.98e-05 ± 9.4e-06 s⁻¹		4.73e-05 ± 1e-05 s⁻¹	7.85e-05 ± 7.5e-06 s⁻¹	3.51e-05 ± 1.2e-05 s⁻¹	5.08e-05 ± 7.5e-06 s⁻¹	
C10U A36G	< 1e-05 s⁻¹	< 1e-05 s⁻¹		< 1e-05 s⁻¹		< 1e-05 s⁻¹	
A15U U31G C71U	0.00048 ± 0.00012 s⁻¹	6.97e-05 ± 3.1e-05 s⁻¹	0.000267 ± 6.8e-05 s⁻¹	0.000517 ± 9.1e-05 s⁻¹	6.51e-05 ± 1.8e-05 s⁻¹	0.000238 ± 3.6e-05 s⁻¹	
A12U U45G	0.0202 ± 0.0044 s⁻¹	0.000515 ± 6.4e-05 s⁻¹	0.0134 ± 0.0027 s⁻¹	0.0165 ± 0.0026 s⁻¹	0.00127 ± 0.00021 s⁻¹	0.00546 ± 0.0011 s⁻¹	1870 ± 530 µM
U47C U54A	0.00447 ± 0.00014 s⁻¹	0.000112 ± 1.8e-05 s⁻¹	0.00275 ± 0.00072 s⁻¹	0.00384 ± 0.00049 s⁻¹	0.00038 ± 7.2e-05 s⁻¹	0.00127 ± 0.00023 s⁻¹	1630 ± 77 µM
A12C C16A	0.00127 ± 0.00038 s⁻¹		0.000339 ± 5.1e-05 s⁻¹	0.000927 ± 9.9e-05 s⁻¹	6.12e-05 ± 1.6e-05 s⁻¹	0.000172 ± 2.7e-05 s⁻¹	4920 ± 2400 µM
A52U C71G	9.41e-05 ± 6.3e-06 s⁻¹		5.28e-05 ± 9.2e-06 s⁻¹	8.19e-05 ± 1e-05 s⁻¹		3.14e-05 ± 1.3e-05 s⁻¹	1700 ± 380 µM
C11A A15G	0.000255 ± 2.9e-05 s⁻¹		0.000149 ± 1.9e-05 s⁻¹	0.000251 ± 3.3e-05 s⁻¹	3.04e-05 ± 1.5e-05 s⁻¹	8.86e-05 ± 1e-05 s⁻¹	1280 ± 310 µM
A12U G40C	0.00584 ± 0.0009 s⁻¹	0.000175 ± 2e-05 s⁻¹	0.00529 ± 0.0011 s⁻¹	0.00509 ± 0.00057 s⁻¹	0.000567 ± 9.5e-05 s⁻¹	0.0014 ± 0.00029 s⁻¹	1420 ± 310 µM
U31C	0.00939 ± 0.0013 s⁻¹	0.000168 ± 2.9e-06 s⁻¹	0.00415 ± 0.00014 s⁻¹	0.00805 ± 0.00018 s⁻¹	0.000489 ± 1.7e-05 s⁻¹	0.00208 ± 7.4e-05 s⁻¹	2370 ± 430 µM
A12U	0.0933 ± 0.014 s⁻¹	0.00275 ± 4.9e-05 s⁻¹	0.049 ± 0.0042 s⁻¹	0.0963 ± 0.0052 s⁻¹	0.00899 ± 0.00054 s⁻¹	0.0283 ± 0.0012 s⁻¹	1340 ± 230 µM
G29U C70G	7.29e-05 ± 6.3e-06 s⁻¹		6.59e-05 ± 7.1e-06 s⁻¹	6.77e-05 ± 7.7e-06 s⁻¹		5.02e-05 ± 8.2e-06 s⁻¹	354 ± 150 µM
U30A U65G	0.00214 ± 0.00022 s⁻¹		0.000614 ± 0.00016 s⁻¹	0.00141 ± 0.00016 s⁻¹	6.8e-05 ± 2.4e-05 s⁻¹	0.000275 ± 8.9e-05 s⁻¹	5250 ± 1000 µM
A48G A53G	0.00014 ± 3.1e-05 s⁻¹		8.53e-05 ± 1.3e-05 s⁻¹	0.000105 ± 1.2e-05 s⁻¹			
G13A G37U	1.65e-05 ± 1.7e-06 s⁻¹	< 1e-05 s⁻¹		< 1e-05 s⁻¹			621 ± 190 µM
